Data taken from US20200123264A1 (Regeneron, published 2020).

T1: human LEPR CRH1-Ig (D2,D3)-MMH (human, UniProt P48357 230-427, limits assumed)
T1 construct: domain: CRH1-Ig (D2,D3); Transiently expressed, captured from supernatant on anti-myc beads
T1 sequence (looked up): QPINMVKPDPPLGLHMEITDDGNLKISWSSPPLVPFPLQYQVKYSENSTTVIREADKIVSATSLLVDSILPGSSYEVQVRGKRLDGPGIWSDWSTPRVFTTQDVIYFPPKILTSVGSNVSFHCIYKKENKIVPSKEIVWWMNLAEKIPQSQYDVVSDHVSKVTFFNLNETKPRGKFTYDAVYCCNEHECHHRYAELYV

T2: human LEPR CRH2-MMH (human, UniProt P48357 428-634, limits assumed)
T2 construct: domain: CRH2; Transiently expressed, captured from supernatant on anti-myc beads
T2 sequence (looked up): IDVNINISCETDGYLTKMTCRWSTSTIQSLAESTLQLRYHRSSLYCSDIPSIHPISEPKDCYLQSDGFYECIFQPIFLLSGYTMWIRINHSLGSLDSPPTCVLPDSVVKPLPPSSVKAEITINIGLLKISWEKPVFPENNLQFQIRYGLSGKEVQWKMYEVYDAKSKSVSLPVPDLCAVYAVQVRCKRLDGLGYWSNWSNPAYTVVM


Columns and labels:
[1] = molecular target: T3, recombinant human LEPR extracellular domain expressed with a C-terminal myc-myc-hexahistidine tag (human, UniProt P48357 22-839); experiment: SPR, mAb captured, 25 C
T3 construct: Monomeric construct; also called hLEPR.MMH; hLEPR-MMH
Method: (§1) Equilibrium dissociation constants (KD values) for antigen binding to purified anti-LEPR monoclonal antibodies of the invention were determined using a real-time surface plasmon resonance biosensor using a Biacore 4000 instrument. All binding studies were performed in running buffer containing 10 mM HEPES, 150 mM NaCl, 3 mM EDTA, and 0.05% v/v Surfactant Tween-20, pH 7.4 (HBS-ET running buffer) at 25° C. and 37° C. The Biacore sensor surface was first derivatized by amine coupling with a monoclonal mouse anti-human Fc antibody (GE, # BR-1008-39) to the capture anti-LEPR monoclonal antibodies. The LEPR reagents tested for binding to the anti-LEPR monoclonal antibodies included recombinant human LEPR extracellular domain expressed with a C-terminal myc-myc-hexahistidine tag (hLEPR.MMH; SEQ ID NO:90), recombinant cynomolgus monkey LEPR extracellular domain expressed with a C-terminal myc-myc-hexahistidine tag (mfLEPR.MMH; SEQ ID NO:93), recombinant mouse LEPR extracellular domain expressed with a C-terminal myc-myc-hexahistidine tag (mLEPR.MMH; SEQ ID NO:94), recombinant rat LEPR extracellular domain expressed with a C-terminal myc-myc-hexahistidine tag (rLEPR.MMH; SEQ ID NO:95), and recombinant human LEPR extracellular domain expressed with a C-terminal mouse IgG2a Fc tag (hLEPR.mFc; SEQ ID NO:91). LEPR constructs that include MMH tags are monomeric LEPR constructs, and LEPR constructs including an mFc tag are dimeric LEPR constructs. […] The dissociation of monoclonal antibody bound LEPR reagent was monitored for 10 minutes in HBS-ET running buffer. Kinetic association (10 and dissociation (10 rate constants were determined by fitting the real-time binding sensorgrams to a 1:1 binding model with mass transport limitation using Scrubber 2.0c curve-fitting software. Binding dissociation equilibrium constants (KD) and dissociative half-lives (t½) were calculated from the kinetic rate constants as: […]

[2] = molecular target: T4, recombinant cynomolgus monkey LEPR extracellular domain expressed with a C-terminal myc-myc-hexahistidine tag (cynomolgus monkey, UniProt Q9MYL0 22-837 (rhesus entry)); experiment: SPR, mAb captured, 25 C
T4 construct: Monomeric construct; also called mfLEPR.MMH; mfLEPR-MMH
Method: as §1

[3] = molecular target: T5, recombinant mouse LEPR extracellular domain expressed with a C-terminal myc-myc-hexahistidine tag (mouse, UniProt P48356 22-839); experiment: SPR, mAb captured, 25 C
T5 construct: Monomeric construct; also called mLEPR.MMH; mLEPR-MMH
Method: as §1

[4] = molecular target: T3, recombinant human LEPR extracellular …; experiment: Luminex, myc-captured LEPR protein on beads, Ab 5 µg/mL
Method: (§2) Aliquots of microspheres with immobilized anti-myc monoclonal antibodies, prepared as described above, were added individually to 1 mL of the each of these protein supernatants. The microspheres were gently mixed, incubated for two hours at 25° C., washed twice with 1 mL of DBPS, centrifuged to remove the supernatant and finally resuspended in 1 mL of DPBS buffer. Forty eight μL of anti-myc IgG coupled microspheres from individual reactions with full length human LEPR and with each of the human LEPR domain proteins were withdrawn and mixed together in 3.6 mL of PBS+20 mg/mL BSA+0.05% sodium azide (blocking buffer).
(§3) From this mixed pool, 75 μL of microspheres were plated per well on a 96 well filter plate (Millipore, Cat. No: MSBVN1250) and mixed with 25 μL of individual anti-human LEPR monoclonal antibodies (0.5 or 5 μg/mL), incubated for two hours at 25° C. and then washed twice with 200 μL of DPBS with 0.05% Tween 20 (washing buffer). […] After 30 minutes, the samples were washed twice with 200 μL of washing buffer and resuspended in 150 μL of wash buffer. The Median Fluorescence intensity (MFI) of the microspheres was measured in a Luminex Analyzer.

[5] = molecular target: T1, human LEPR CRH1-Ig (D2,D3)-MMH; experiment: as above
Method: as §2, §3

human LEPR CRH2-MMH = molecular target: T2, human LEPR CRH2-MMH; experiment: as above
Method: as §2, §3

[6] = molecular target: T6, recombinant rat LEPR extracellular domain expressed with a C-terminal myc-myc-hexahistidine tag (rat, UniProt Q62959 22-839); experiment: SPR, mAb captured, 25 C
T6 construct: Monomeric construct; also called rLEPR.MMH; rLEPR-MMH
Method: as §1

T5 sequence (P48356 other isoform, or with tags, fused parts or gaps): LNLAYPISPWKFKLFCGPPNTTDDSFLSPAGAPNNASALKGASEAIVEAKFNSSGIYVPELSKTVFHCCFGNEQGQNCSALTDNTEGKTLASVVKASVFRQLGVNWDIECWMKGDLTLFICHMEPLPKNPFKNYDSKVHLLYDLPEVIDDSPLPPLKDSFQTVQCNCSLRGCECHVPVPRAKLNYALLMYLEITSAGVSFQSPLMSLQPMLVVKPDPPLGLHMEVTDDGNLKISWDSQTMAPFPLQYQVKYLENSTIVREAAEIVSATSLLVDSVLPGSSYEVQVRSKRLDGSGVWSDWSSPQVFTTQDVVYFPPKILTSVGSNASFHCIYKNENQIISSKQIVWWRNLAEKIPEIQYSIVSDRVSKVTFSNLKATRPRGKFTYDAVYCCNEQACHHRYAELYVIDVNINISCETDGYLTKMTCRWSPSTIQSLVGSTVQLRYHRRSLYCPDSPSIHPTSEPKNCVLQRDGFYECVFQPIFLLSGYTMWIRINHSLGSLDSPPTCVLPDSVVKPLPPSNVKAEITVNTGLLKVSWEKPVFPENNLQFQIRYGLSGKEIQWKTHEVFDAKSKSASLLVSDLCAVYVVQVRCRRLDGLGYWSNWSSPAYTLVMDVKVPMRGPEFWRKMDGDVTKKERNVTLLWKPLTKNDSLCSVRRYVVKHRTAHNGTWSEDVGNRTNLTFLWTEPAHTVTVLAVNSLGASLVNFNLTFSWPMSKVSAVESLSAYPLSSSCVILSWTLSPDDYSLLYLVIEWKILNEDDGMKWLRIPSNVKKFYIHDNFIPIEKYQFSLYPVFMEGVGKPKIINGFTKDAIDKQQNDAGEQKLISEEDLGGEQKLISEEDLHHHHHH
T6 sequence (Q62959 other isoform, or with tags, fused parts or gaps): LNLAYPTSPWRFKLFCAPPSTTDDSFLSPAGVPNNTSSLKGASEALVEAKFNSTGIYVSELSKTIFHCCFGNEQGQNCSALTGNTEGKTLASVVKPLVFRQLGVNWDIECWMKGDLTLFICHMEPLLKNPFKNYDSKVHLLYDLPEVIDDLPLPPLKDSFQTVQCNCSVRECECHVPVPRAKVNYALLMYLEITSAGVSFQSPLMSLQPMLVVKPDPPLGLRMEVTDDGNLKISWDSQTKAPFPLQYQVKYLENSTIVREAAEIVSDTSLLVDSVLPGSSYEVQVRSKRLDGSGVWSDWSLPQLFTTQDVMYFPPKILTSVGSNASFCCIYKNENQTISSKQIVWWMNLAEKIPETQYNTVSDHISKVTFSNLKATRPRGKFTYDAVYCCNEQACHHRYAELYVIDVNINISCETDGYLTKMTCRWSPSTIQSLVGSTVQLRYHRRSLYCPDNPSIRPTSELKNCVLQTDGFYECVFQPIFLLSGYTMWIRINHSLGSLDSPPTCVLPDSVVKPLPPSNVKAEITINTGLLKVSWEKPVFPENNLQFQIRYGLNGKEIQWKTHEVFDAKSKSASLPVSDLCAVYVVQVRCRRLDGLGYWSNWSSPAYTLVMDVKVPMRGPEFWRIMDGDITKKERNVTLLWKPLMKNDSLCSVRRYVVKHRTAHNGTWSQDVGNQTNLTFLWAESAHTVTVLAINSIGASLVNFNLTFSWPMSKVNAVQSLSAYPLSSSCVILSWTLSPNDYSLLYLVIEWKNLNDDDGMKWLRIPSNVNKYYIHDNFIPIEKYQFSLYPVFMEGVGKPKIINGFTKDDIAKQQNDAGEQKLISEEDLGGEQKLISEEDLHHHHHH

Binder	100 nM hLEPR-MMH Bound (RU) [1]	Kd [1]	koff [1]	kon [1]	t½ [1]	100 nM mfLEPR-MMH Bound (RU) [2]	Kd [2]	koff [2]	kon [2]	t½ [2]	100 nM mLEPR-MMH Bound (RU) [3]	Luminex MFI [4]	Luminex MFI [5]	Luminex MFI (human LEPR CRH2-MMH)	100 nM rLEPR-MMH Bound (RU) [6]	Kd [6]	koff [6]	kon [6]	t½ [6]	also measured
H4H17322P2 (antibody, human IgG4, V domains shown, H4H prefix: human IgG4 Fc) VH: QLQLQESGPGLVKPSETLSLTCTVSGASISSSRFYGGWIRQPPGKGLEWIGDIYYSGNTYYNPSLQSRVTISVDTSKNQFSLKLSSVTAADTAVYYCARHLMITFGGLIVEGFDIWGQGTMVTVSS VL: not shown	66 RU	5.11 nM	0.000224 s⁻¹	43800 M⁻¹ s⁻¹	52 min	102 RU	4.16 nM	0.000292 s⁻¹	70200 M⁻¹ s⁻¹	40 min	0 RU	8930 MFI	58 MFI	19700 MFI	–	–	–	–	–	–
H4H18439P2 (antibody, human IgG4, V domains shown, H4H prefix: human IgG4 Fc) VH: QLQLQESGPGLVKPSETLSLTCIVSGGDITSSSYYWNWIRQPPGKGLEWIGNIYYSGSTNYNPSLKSRVTISIDTSKSQFSLKLRSVTAADTAVYYCARLLRYFDWSKGYLDYWGQGTLVTVSS VL: not shown	21 RU	106 nM	0.00113 s⁻¹	10700 M⁻¹ s⁻¹	10 min	22 RU	96.3 nM	0.00152 s⁻¹	15700 M⁻¹ s⁻¹	8 min	-2 RU	5470 MFI	10000 MFI	16 MFI	-1 RU	–	–	–	–	–
H4H18437P2 (antibody, human IgG4, V domains shown, H4H prefix: human IgG4 Fc) VH: QVQLVESGGGVVQPGRSLRLSCAASGFTFSSYGIHWVRQAPGKGLEWVAVISYDGNNKYYADSVKGRFTISRDNSKNTLYLQMNSLRAEDTAVYYCAKDLFLEWLFHGMGVWGQGTTVTVSS VL: not shown	56 RU	65.3 nM	0.00375 s⁻¹	57400 M⁻¹ s⁻¹	3.1 min	70 RU	58.9 nM	0.00405 s⁻¹	68700 M⁻¹ s⁻¹	2.9 min	6 RU	8640 MFI	43 MFI	25 MFI	13 RU	328 nM	0.0138 s⁻¹	42100 M⁻¹ s⁻¹	0.8 min	Kd [3]: 264 nM; koff [3]: 0.00418 s⁻¹; kon [3]: 15800 M⁻¹ s⁻¹; t½ [3]: 2.8 min
H4H18457P2 (antibody, human IgG4, V domains shown, H4H prefix: human IgG4 Fc) VH: EVQLVESGGSVVRPGESLRLSCAASGFTFDDYGMSWVRQAPGKGLEWVSGISWNGGITVYADSVKGRFTVSRDNAKNSLYLQMNSLRAEDTALYHCARARYGGADYWGQGTLVTVSS VL: not shown	119 RU	9.89 nM	0.00252 s⁻¹	255000 M⁻¹ s⁻¹	5 min	133 RU	12.2 nM	0.00331 s⁻¹	273000 M⁻¹ s⁻¹	3.5 min	1 RU	7500 MFI	43 MFI	18 MFI	18 RU	730 nM	0.0206 s⁻¹	28300 M⁻¹ s⁻¹	0.6 min	–
H4H18464P2 (antibody, human IgG4, V domains shown, H4H prefix: human IgG4 Fc) VH: QVQLVQSGPEVKKPGASVKVSCKGSGYTFSWYGISWIRQAPGHGLEWMGWISASSGNTRFAQKVQGRLTMTTDTSTSTAYMELRSLRSDDTAVYYCARTGTRPFDYWGQGTLVTVSS VL: not shown	60 RU	9.09 nM	0.00113 s⁻¹	124000 M⁻¹ s⁻¹	10 min	15 RU	60.4 nM	0.00231 s⁻¹	38200 M⁻¹ s⁻¹	5 min	-1 RU	9380 MFI	3740 MFI	24 MFI	-1 RU	–	–	–	–	–
H4H18440P2 (antibody, human IgG4, V domains shown, H4H prefix: human IgG4 Fc) VH: QVQLVESGGGMVKPGGSLRLSCAASGFTFSDYYMSWIRQAPGKGLEWISHISITGSTIYYADSVKGRFTISRDNAKNSLYLEMNRLRDEDTAVYYCTRDEPDIVLVRYGMDVWGQGTTVTVSS VL: not shown	71 RU	11.8 nM	0.000497 s⁻¹	42300 M⁻¹ s⁻¹	23 min	67 RU	54.1 nM	0.00268 s⁻¹	49500 M⁻¹ s⁻¹	4.3 min	-3 RU	7040 MFI	9160 MFI	17 MFI	-2 RU	–	–	–	–	–
